# Reference: paper PMC2831328
# B1: ds9 (competitor duplex) (dsRNA)
# RNA 1: GCCGCCCGG
# RNA 2: CCGGGCGGC
# Target: HCV NS3 helicase (WT) (Hepatitis C virus (subgenomic replicon …, UniProt Q9WMX2 1027-1657))
# Experiment: competition
# Chain of HCV NS3 helicase (WT) (Hepatitis C virus (Q9WMX2 1027-1657): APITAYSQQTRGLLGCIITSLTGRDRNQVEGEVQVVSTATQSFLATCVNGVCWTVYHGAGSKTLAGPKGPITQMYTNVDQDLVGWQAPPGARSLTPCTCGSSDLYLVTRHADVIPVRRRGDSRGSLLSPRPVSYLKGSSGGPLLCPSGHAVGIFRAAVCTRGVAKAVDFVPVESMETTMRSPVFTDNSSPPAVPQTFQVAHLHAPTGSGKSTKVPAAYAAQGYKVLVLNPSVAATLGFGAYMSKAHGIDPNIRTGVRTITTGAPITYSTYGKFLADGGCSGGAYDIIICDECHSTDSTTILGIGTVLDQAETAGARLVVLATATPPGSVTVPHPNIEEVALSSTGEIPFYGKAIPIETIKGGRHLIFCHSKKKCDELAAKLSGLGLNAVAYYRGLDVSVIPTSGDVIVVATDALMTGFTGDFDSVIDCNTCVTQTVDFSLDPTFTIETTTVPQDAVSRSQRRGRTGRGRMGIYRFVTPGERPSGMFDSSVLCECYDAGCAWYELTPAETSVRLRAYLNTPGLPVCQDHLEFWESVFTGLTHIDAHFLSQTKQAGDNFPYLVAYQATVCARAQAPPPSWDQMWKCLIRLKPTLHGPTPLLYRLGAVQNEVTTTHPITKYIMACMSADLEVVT
binder,measurement,value
B1,Ki,90 ± 20 nM
